According to patent US20240175038:

Biological target: T1, IntC3 (mutant phage lambda integrase) (Enterobacteria phage lambda) (UniProt P03700)
T1 sequence: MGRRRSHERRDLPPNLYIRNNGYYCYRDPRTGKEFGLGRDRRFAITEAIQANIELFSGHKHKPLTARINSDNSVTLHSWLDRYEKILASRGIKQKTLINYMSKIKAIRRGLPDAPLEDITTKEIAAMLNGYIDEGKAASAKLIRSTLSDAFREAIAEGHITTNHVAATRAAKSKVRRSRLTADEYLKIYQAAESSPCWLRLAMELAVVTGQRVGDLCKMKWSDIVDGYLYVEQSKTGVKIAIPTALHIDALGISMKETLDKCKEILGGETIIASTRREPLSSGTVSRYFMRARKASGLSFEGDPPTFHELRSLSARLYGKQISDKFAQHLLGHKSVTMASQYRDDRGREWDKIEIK
Test: cell_activity
Conditions: E. coli MG1655-ISC, scIHF2 co-expressed, arabinose 70 min

Substance | activity (% recombination) (recombination with attL homologue) | activity (% recombination) (recombination with attB homologue)
21 bp attB homologue in pattPhae2(attL) | > 90 | 
121 bp attL homologue in pattPhae2(attL) |  | > 90
